Experimental data as given in article PMC2878922 (2011).

How the values were obtained:
CD47 ECD [1] = biological target: T1, CD47 ECD (Mus musculus, UniProt Q61735); experiment: flow cytometry saturation binding on CD47-coated beads
T1 chain: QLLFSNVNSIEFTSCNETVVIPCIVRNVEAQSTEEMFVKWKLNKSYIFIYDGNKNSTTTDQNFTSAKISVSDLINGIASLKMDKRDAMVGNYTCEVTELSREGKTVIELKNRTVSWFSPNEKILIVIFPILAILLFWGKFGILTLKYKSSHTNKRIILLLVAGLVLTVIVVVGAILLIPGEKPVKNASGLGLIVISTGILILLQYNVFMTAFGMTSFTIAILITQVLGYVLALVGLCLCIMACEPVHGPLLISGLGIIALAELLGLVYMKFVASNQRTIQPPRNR

CD47 ECD [2] = biological target: CD47 ECD (Homo sapiens, UniProt Q08722); experiment: as above
Sequence of CD47 ECD (Homo sapiens, UniProt Q08722) (Q08722 19-323): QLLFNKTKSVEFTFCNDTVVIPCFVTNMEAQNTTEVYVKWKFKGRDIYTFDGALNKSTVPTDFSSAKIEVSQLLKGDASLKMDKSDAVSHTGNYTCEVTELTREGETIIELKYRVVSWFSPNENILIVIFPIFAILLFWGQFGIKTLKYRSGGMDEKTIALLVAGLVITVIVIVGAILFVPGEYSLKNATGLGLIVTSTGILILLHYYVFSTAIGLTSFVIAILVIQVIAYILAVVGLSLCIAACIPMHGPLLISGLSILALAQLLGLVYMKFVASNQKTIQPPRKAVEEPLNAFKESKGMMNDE

B1: SIRPα (variant 129_IgV, GST fusion) ECD (protein)
chain: KELKVTQPEKSVSVAAGDSTVLNCTLTSLLPVGPIRWYRGVGPSRLLIYSFAGEYVPRIRNVSDTTKRNNMDFSIRISNVTPADAGIYYCVKFQKGSSEPDTEIQSGGGTEVYVLAKPSPPEVSGPADRGIPDQKVNFTCKSHGFSPRNITLKWFKDGQELHPLETTVNPSGKNVSYNISSTVRVVLNSMDVNSKVICEVAHITLDRSPLRGIANLSNFIRVSPTVKVTQQSPTSMNQVNLTCRAERFYPEDLQLIWLENGNVSRNDTPKNLTKNTDGTYNYTSLFLVNSSAHREDVVFTCQVKHDQQPAITRNHTVLGFAHSSDQGSMQTFPDNNATHNWN
A Kd (CD47 ECD [1]) of 220 nM and a Kd (CD47 ECD [2]) of 220 nM were found for B1 in this work.
